For two molecules, IC50 results are on record in US20160368993A1 (University of California, published 2016).

The assay deals with T1, αvβ6 integrin (R&D Systems), immobilized (UniProt P06756 31-992; P18564 22-707).
T1 construct: Bought protein captured on the plate by the anti-αv antibody P2W7; also called immobilized αvβ6 integrin
The assay is described as follows: competitive binding ELISA against biotinylated fibronectin on immobilized αvβ6 integrin. On the procedure:
Separate competitive binding ELISAs were used to determine the binding affinity of the anti-αᵥβ₆ diabody and Cys-diabody relative to biotinylated fibronectin, a known natural ligand of the αᵥβ₆ integrin. Biotinylation of fibronectin was performed according to the manufacturer's instructions (Amersham Biosciences). The P2W7 antibody (anti-αᵥ, 5 μg/mL, Abcam) was plated into wells (50 μL/well) of a 96-well plate (Maxisorp®, Nunc). The plate was incubated at 37° C. for 1 h then washed with PBS (3×). After washing, the wells were blocked with blocking buffer (PBS, 5% bovine serum albumin (BSA), 1% Tween 20) and the plate was incubated at room temperature for 3 hrs, followed by washing with PBS (3×). The αᵥβ₆ integrin (3 μg/mL, R&D Systems) in conjugate buffer (20 mM Tris, 1 mM MnCl2, 150 mM NaCl, 0.1% Tween, 1% BSA) was added to the wells (50 μL/well). The plate was incubated at room temperature for 1 h and washed with wash buffer (20 mM Tris, 1 mM MnCl2, 150 mM NaCl, 0.1% Tween, 3×). […] Extravidin HRP conjugate was detected using 3,3′,5,5′-tetramethylbenzidine (TMB) substrate (50 μL/well) for 10-15 mins at room temperature. The reaction was terminated by the addition of 1N sulfuric acid (50 μL/well) and the absorbance of each well was measured in a Multiscan Ascent plate reader (Thermo) at 450 nm. […]
Background: An ELISA detects its analyte on a solid surface through an enzyme-linked reagent.

T1 sequence (P06756 31-992, chain 1 of 2): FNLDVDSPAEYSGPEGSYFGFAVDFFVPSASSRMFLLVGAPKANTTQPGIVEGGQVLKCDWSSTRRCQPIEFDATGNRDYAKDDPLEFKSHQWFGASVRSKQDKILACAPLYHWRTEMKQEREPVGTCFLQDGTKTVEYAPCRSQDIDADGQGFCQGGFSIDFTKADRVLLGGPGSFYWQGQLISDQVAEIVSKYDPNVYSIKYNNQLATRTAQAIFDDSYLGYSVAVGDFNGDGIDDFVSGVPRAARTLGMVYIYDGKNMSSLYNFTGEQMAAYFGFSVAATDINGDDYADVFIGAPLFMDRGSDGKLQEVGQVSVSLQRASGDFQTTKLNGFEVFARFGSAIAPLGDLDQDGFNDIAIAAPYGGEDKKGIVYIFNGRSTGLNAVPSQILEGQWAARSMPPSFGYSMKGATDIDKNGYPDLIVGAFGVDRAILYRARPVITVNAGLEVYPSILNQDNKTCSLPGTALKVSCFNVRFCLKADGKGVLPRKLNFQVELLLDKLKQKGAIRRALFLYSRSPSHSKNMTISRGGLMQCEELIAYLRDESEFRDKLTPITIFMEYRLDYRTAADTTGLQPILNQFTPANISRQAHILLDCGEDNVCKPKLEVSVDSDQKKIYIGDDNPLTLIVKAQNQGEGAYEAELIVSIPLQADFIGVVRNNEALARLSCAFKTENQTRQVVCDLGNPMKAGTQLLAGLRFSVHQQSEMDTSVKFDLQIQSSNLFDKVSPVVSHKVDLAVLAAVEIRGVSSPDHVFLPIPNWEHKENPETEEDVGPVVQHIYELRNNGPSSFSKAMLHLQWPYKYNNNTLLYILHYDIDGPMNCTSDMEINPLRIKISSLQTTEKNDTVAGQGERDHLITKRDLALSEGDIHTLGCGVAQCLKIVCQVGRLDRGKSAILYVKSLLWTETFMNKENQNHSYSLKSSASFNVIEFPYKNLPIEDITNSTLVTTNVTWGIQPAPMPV
T1 sequence (P18564 22-707, chain 2 of 2): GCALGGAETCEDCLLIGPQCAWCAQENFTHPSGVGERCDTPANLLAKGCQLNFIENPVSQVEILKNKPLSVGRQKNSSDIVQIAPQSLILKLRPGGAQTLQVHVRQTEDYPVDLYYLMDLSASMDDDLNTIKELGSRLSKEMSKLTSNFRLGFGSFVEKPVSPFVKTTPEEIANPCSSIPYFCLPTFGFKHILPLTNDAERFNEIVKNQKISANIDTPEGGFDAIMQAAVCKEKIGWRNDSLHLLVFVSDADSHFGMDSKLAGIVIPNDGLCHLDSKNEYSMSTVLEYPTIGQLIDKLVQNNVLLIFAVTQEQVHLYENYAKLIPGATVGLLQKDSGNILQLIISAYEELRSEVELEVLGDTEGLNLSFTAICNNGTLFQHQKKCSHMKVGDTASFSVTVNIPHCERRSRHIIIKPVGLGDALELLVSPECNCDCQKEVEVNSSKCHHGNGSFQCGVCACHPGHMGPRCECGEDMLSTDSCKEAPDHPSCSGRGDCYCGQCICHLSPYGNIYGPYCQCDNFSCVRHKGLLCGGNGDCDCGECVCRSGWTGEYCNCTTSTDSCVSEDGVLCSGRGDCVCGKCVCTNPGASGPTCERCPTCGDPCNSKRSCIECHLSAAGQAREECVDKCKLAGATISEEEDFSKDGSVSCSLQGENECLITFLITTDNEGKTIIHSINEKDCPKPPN

B1: anti-αvβ6 diabody (other)
scFv: EVQLVESGGGLVQPGGSLRLSCAASGFTFSRYVMSWVRQAPGKGLEWVASISSGGRMYYPDTVKGRFTISRDNAKNSLYLQMNSLRAEDTAVYYCARGSIYDGYYVFPYWGQGTLVTVSSGGSEIVLTQSPATLSLSPGERATLSCSASSSVSSSYLYWYQQKPGQAPRLLIYSTSNLASGIPARFSGSGSGTDFTLTISSLEPEDFAVYYCHQWSTYPPTFGGGTKVEIKHHHHHH
notes: Non-covalent dimer of two VH-G2S-VL-His6 chains (diabody), secreted from 293-F cells; also called B6DiaR-G2S; parental anti-αvβ6 diabody
A word on the IC50: it is the concentration that gives 50% inhibition. A high value points to weaker potency in that assay. On to B1, for which the IC50 turned out to be 800 pM.

B2: anti-αvβ6 Cys-diabody (other)
scFv: EVQLVESGGGLVQPGGSLRLSCAASGFTFSRYVMSWVRQAPGKGLEWVASISSGGRMYYPDTVKGRFTISRDNAKNSLYLQMNSLRAEDTAVYYCARGSIYDGYYVFPYWGQGTLVTVSSGGSEIVLTQSPATLSLSPGERATLSCSASSSVSSSYLYWYQQKPGQAPRLLIYSTSNLASGIPARFSGSGSGTDFTLTISSLEPEDFAVYYCHQWSTYPPTFGGGTKVEIKHHHHHHGGC
modifications: C-terminal engineered cysteines of the two chains form an interchain disulfide
notes: Covalent dimer; also called disulfide-stabilized anti-αvβ6 Cys-diabody; B6DiaR-G2S-Cys
In turn, B2 returned an IC50 of 600 pM.
